{"source": "paper PMC2939310", "about": "(Biochemistry, 2010)", "proteins": {"B1": {"name": "DesVII-C-His6/DesVIII-N-Stag heterodimer (complex, Streptomyces venezuelae)", "chain 1": "MRVLLTSFAHHTHYYGLVPLAWALLAAGHEVRVASQPALTDTITGSGLAAVPVGTDHLIHEYRVRMAGEPRPNHPAIAFDEARPEPLDWDHALGIEAILAPYFYLLANNDSMVDDLVDFARSWQPDLVLWEPTTYAGAVAAQVTGAAHARVLWGPDVMGSARRKFVALRDRQPPEHREDPTAEWLTWTLDRYGASFEEELLTGQFTIDPTPPSLRLDTGLPTVGMRYVPYNGTSVVPDWLSEPPARPRVCLTLGVSAREVLGGDGVSQGDILEALADLDIELVATLDASQRAEIRNYPKHTRFTDFVPMHALLPSCSAIIHHGGAGTYATAVINAVPQVMLAELWDAPVKARAVAEQGAGFFLPPAELTPQAVRDAVVRILDDPSVATAAHRLREETFGDPTPAGIVPELERLAAQHRRPPADARH", "chain 2": "MTDDLTGALTQPPLGRTVRAVADRELGTHLLETRGIHWIHAANGDPYATVLRGQADDPYPAYERVRARGALSFSPTGSWVTADHALAASILCSTDFGVSGADGVPVPQQVLSYGEGCPLEREQVLPAAGDVPEGGQRAVVEGIHRETLEGLAPDPSASYAFELLGGFVRPAVTAAAAAVLGVPADRRADFADLLERLRPLSDSLLAPQSLRTVRAADGALAELTALLADSDDSPGALLSALGVTAAVQLTGNAVLALLAHPEQWRELCDRPGLAAAAVEETLRYDPPVQLDARVVRGETELAGRRLPAGAHVVVLTAATGRDPEVFTDPERFDLARPDAAAHLALHPAGPYGPVASLVRLQAEVALRTLAGRFPGLRQAGDVLRPRRAPVGRGPLSVPVSSS"}}, "biological_target": "the molecule itself", "assay": "SEC", "data": [{"protein": "B1", "values": [{"measurement": "stoichiometry N", "value": "3 heterodimers in the complex"}]}]}
